According to patent US20120276611A1 (GRIFOLS THERAPEUTICS, published 2012):

T1: α2-antiplasmin (UniProt P08697 40-491, limits assumed)
T1 construct: also called α2-AP
T1 sequence (looked up): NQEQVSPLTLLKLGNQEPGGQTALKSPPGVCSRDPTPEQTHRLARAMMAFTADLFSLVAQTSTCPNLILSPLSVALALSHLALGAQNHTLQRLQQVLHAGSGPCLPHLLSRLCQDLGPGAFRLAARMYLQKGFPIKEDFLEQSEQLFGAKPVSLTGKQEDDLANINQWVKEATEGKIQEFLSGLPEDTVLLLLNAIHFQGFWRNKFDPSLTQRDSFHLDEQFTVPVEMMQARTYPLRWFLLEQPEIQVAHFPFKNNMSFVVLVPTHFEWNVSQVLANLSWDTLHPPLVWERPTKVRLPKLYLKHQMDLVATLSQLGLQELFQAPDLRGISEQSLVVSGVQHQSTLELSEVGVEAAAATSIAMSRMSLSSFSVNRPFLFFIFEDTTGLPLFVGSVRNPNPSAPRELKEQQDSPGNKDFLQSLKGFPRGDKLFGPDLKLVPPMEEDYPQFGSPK

B1: (TAL6003)-plasmin (enzyme)
chain: MRDVVLFEKKVYLSECKTGNGKNYRGTMSKTKNGITCQKWSSTSPHRPRFSPATHPSEGLEENYCRNPDNDPQGPWCYTTDPEKRYDYCDVPQCAAPSFDCGKPQVEPKKCPGRVVGGCVAHPHSWPWQVSLRTRFGMHFCGGTLISPEWVLTAAHCLEKSPRPSSYKVILGAHQEVNLEPHVQEIEVSRLFLEPTRKDIALLKLSSPAVITDKVIPACLPSPNYVVADRTECFITGWGETQGTFGAGLLKEAQLPVIENKVCNRYEFLNGRVQSTELCAGHLAGGTDSCQGDSGGPLVCFEKDKYILQGVTSWGLGCARPNKPGVYVRVSRFVTWIEGVMRNN
notes: also called recombinant (TAL6003)-plasmin
B2: micro-plasmin (enzyme, UniProt P00747 562-810, looked up)
chain: APSFDCGKPQVEPKKCPGRVVGGCVAHPHSWPWQVSLRTRFGMHFCGGTLISPEWVLTAAHCLEKSPRPSSYKVILGAHQEVNLEPHVQEIEVSRLFLEPTRKDIALLKLSSPAVITDKVIPACLPSPNYVVADRTECFITGWGETQGTFGAGLLKEAQLPVIENKVCNRYEFLNGRVQSTELCAGHLAGGTDSCQGDSGGPLVCFEKDKYILQGVTSWGLGCARPNKPGVYVRVSRFVTWIEGVMRNN
notes: domain: serine protease domain; also called micro-plasmin (lacking all five kringles)
B3: mini-plasmin (enzyme)
chain: VAPPPVVLLPDVETPSEEDCMFGNGKGYRGKRATTVTGTPCQDWAAQEPHRHSIFTPETNPRAGLEKNYCRNPDGDVGGPWCYTTNPRKLYDYCDVPQCAAPSFDCGKPQVEPKKCPGRVVGGCVAHPHSWPWQVSLRTRFGMHFCGGTLISPEWVLTAAHCLEKSPRPSSYKVILGAHQEVNLEPHVQEIEVSRLFLEPTRKDIALLKLSSPAVITDKVIPACLPSPNYVVADRTECFITGWGETQGTFGAGLLKEAQLPVIENKVCNRYEFLNGRVQSTELCAGHLAGGTDSCQGDSGGPLVCFEKDKYILQGVTSWGLGCARPNKPGVYVRVSRFVTWIEGVMRNN
notes: also called mini-plasmin (K5-SP)

Key:
α2-antiplasmin [1] = molecular target: T1, α2-antiplasmin; assay: inhibition rates by α2-antiplasmin compared (residual S-2251 activity)
α2-antiplasmin [2] = molecular target: T1, α2-antiplasmin; assay: enzyme mixed with α2-antiplasmin, residual S-2251 activity at time points (Wiman and Collen); 22° C., PBS pH 7.4
Method: TABLE 3 Inhibition rates for various plasmin species and inhibitors were determined at 22° C. in PBS buffer, pH 7.4.

Row | Binder | fold faster inhibition than micro-plasmin or mini-plasmin (α2-antiplasmin [1]) | inhibition rate (second-order rate constant) (α2-antiplasmin [2])
1 | B1 | 40 fold | 1.8e+07 M⁻¹ s⁻¹
2 | B2 | – | 180000 M⁻¹ s⁻¹
3 | B3 | – | 240000 M⁻¹ s⁻¹
